Measurements as given in PMC6667474 (Scientific Reports, 2019).

Target: T1, Myc-IQGAP3 (human, UniProt Q86VI3 2-1631)
T1 construct: human IQGAP3 from a commercial cDNA (Dharmacon); full length IQGAP3 (corresponding to amino acids 2-1631) in pcDNA3; also called overexpressed IQGAP3; IQ3; source: HEK293, transfected, in lysate
Assay: co-IP; HEK293 cells transfected with Myc-IQGAP3 alone or with Myc-Cdc42 (wt, Q61L or T17N); anti-IQGAP3 rabbit polyclonal antibody and Protein A-Sepharose 4 h at 4 C; lysis buffer 150 mM NaCl, 1% Triton X-100, 200 mM Tris-HCl pH 7.4; Western blot
Settings: partners not purified

T1 sequence (Q86VI3 2-1631): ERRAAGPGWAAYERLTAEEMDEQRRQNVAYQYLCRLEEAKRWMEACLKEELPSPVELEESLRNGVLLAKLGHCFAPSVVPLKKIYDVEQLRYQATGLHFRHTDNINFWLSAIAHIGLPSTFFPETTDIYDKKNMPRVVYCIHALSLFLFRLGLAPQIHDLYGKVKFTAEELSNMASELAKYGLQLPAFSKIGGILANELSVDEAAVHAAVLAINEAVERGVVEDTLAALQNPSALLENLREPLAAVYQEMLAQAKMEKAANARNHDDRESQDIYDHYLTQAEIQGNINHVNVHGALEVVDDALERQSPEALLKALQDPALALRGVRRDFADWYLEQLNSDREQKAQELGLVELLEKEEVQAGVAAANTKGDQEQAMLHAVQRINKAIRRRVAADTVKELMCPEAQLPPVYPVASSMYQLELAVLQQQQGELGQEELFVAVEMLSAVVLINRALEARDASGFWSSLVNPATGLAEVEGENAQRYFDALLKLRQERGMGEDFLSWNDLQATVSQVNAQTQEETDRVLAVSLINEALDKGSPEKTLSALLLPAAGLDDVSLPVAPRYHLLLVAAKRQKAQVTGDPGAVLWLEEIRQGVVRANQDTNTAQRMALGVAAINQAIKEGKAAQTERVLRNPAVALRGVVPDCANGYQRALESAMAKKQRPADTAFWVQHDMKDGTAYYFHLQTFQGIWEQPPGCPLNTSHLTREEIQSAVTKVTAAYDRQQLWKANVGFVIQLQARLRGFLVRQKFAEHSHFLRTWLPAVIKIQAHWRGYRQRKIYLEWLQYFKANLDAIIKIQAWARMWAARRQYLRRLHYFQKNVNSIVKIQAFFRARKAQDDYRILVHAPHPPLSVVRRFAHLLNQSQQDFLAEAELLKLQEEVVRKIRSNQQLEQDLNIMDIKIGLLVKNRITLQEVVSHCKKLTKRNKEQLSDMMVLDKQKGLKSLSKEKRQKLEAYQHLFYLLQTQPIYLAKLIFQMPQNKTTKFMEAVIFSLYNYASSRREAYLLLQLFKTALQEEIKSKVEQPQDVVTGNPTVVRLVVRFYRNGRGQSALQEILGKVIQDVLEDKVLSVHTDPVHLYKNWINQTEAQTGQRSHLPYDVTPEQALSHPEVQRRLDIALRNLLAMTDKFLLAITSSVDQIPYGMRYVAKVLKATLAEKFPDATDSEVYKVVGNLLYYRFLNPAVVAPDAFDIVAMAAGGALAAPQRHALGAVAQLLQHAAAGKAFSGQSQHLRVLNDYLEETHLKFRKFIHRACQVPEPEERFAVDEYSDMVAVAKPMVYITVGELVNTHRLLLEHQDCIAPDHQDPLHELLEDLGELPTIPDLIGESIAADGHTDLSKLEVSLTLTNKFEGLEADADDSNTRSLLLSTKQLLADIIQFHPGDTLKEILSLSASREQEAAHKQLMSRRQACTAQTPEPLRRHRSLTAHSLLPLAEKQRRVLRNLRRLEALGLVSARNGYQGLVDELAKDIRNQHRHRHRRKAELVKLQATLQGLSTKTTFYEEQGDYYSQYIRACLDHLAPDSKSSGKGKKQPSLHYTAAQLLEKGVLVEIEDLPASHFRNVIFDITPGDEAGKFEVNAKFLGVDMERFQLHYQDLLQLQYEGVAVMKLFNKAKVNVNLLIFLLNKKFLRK

fold amount co-immunoprecipitated against wild type Cdc42: 1.7 fold
B1: Myc-Cdc42 constitutively active (Q61L) (natural protein)
chain: not shown
notes: Cdc42 Q61L cut from pGEX-2T-Cdc42-Q61L and inserted into pcDNA3; also called Myc-Cdc42-Q61L; Cdc42 Q61L; source: HEK293, transfected, in lysate
